Data on one substance can be found in PMC6298963.

As a reminder, the stoichiometry N is a count of units in the complex or per binding partner.

Several values for one entry are separate records, joined by “and”; a condition that tells them apart may be missing. Equal values may be shown once. Read-outs that look alike come from different tables or passages of the source.

Assay [1] has as its target full length human APOBEC3G (human) (UniProt Q9HC16). The experiment in a line: atomic force microscopy (protein volume analysis); 16 nM A3G with 4 nM hybrid DNA; 50 mM HEPES pH 7.5, 100 mM NaCl, 5 mM MgCl2, 1 mM DTT, 37 °C 30 min; on APS-mica, tapping mode in air; stoichiometry of A3G on the DNA from volume.
For assay [2] the target is unchanged. In words: atomic force microscopy (protein volume analysis); 80 nM A3G with 4 nM hybrid DNA; 50 mM HEPES pH 7.5, 100 mM NaCl, 5 mM MgCl2, 1 mM DTT, 37 °C 30 min; on APS-mica, tapping mode in air; stoichiometry of A3G on the DNA from volume.
Assay [3] has the same target. Described as above. The source holds these as a separate data set.
Assay [4] shares this target. The experiment in a line: atomic force microscopy (protein volume analysis); 32 nM A3G with 4 nM hybrid DNA; 50 mM HEPES pH 7.5, 100 mM NaCl, 5 mM MgCl2, 1 mM DTT, 37 °C 30 min; on APS-mica, tapping mode in air; stoichiometry of A3G on the DNA from volume; fractions from areas under the Gaussians.

Turning to “full length human APOBEC3G (from UniProt Q9HC16 1-384) (enzyme)”, the stoichiometry N in assay [1] was 2 and 3. In assay [2], this substance registered a percent of A3G-DNA complexes with A3G trimers of 88%, a percent of A3G-DNA complexes with higher order A3G oligomers of 12% and a stoichiometry N of 3. In assay [3], this substance returned a percent of A3G-DNA complexes with A3G trimers of 82%, a percent of A3G-DNA complexes with higher order A3G oligomers of 18% and a stoichiometry N of 6. In assay [4], the percent of A3G-DNA complexes with A3G dimers came out at 78%; the percent of A3G-DNA complexes with A3G tetramers amounted to 22%; the stoichiometry N is 2 and 4.
